One data set relates to 293T cells. The experiment in a line: Cell viability of 293T cell lines treated with Inhibitor of Telomerase I (crystal violet). The conditions noted are these: 24.2 vs pLNCX 293T cells, inhibitor 0-20 μM, 72 hours. Format: cell-based, human. The method, then:
FIG. 6.—Cell viability and telomerase activity of the 293T cell lines: pLNCX and 24.2 treated with the Inhibitor of telomerase I. A) Cell viability. After seeding the 293T cells: pLNCX and 24.2 in 24-well plates, they were incubated with concentrations between 0-20 μM of the Inhibitor of Telomerase I. The cell viability was measured by means of the crystal violet technique after 72 hours of exposure to the drug. The data represent the mean of two experiments performed in quadruplicate. B) Telomerase activity at different doses of the Inhibitor of Telomerase I. Telomerase activity of the 293T cells: 24.2 and pLNCX in the presence of different concentrations of the inhibitor of telomerase I (5-7 μM) for 3 days. The cells were seeded in 60-mm plates and subsequently treated at the specified concentrations and times.
The effect of GSE 24.2 in response to the inhibitor of telomerase I was studied. To this end, a viability curve was performed wherein the pLNCX and 24.2 cell lines were treated with increasing concentrations of the inhibitor of telomerase I (0-20 μM) for 72 hours. […]
Growth curves. […] The number of cells was determined by estimating the absorbance at 595 nm. […]

The test system of a further data set is c-MYC promoter. The experiment in a line: c-MYC-luc reporter (px3.2) luciferase assay in 293T cells. Format: cell-based, human. How it is done: FIG. 12.—The promoter activity of c-MYC is induced by the GSE 24.2 peptide. A) Schematic representation of the c-MYC promoter, indicating the different constructs used in the experiments. B) 293T cells were co-transfected with the specified plasmids (10 μg/DNA per million cells) and with the px3.2 c-MYC-luc reporter (1 μg per million cells). C) The specified cell lines were transfected with the px3.2 c-MYC-luc reporter (1 μg per million cells). D) The specified cell lines were transfected with the different constructs of the c-MYC-luc reporter (1 μg per million cells). After 24 hours of transfection, the luciferase activity was analysed as specified above. CMV-Renilla (0.1 μg/ml per million cells) was used as a control for the transfection efficiency. The data represent the mean of two experiments performed in quadruplicate.
FIG. 13.—The activity of the c-MYC promoter induced by the GSE 24.2 peptide is dependent on the NHE III element. A) Schematic representation of the mutations generated in the NHE III element, px3.2 (SEQ ID NO: 21), px3.2 G12A (SEQ ID NO: 22), px3.2 G17A (SEQ ID NO: 23), and px3.2 G26T/G27T (SEQ ID NO: 24). B) The 293T cells were co-transfected with different constructs (10 μg/DNA per million cells) and with the different mutants of the px3.2 reporter plasmid (1 μg per million cells). C) The cell lines specified in the figure were transfected with the different mutants of the px3.2 reporter (1 μg per million cells). After 24 h of transfection, the luciferase activity was analysed as specified above. CMV-Renilla (0.1 μg/ml per million cells) was used as a control for the transfection efficiency. The data represent the mean of two experiments performed in quadruplicate.
The transcription of the c-myc gene is controlled by two different promoters and it seems to be repressed by a domain hypersensitive to DNase located between the P0 and P1 promoters (NHEIII). Thus, four different constructs were used that contained 3.2 kb of the transcription initiation point of c-myc bound to the luciferase gene (FIG. 12a).
This transcription factor, c-myc, should therefore activate the transcription of hTERT. Thus, three mutants deleted in the c-myc promoter were used to define the necessary region for the GSE 24.2 peptide to perform its inducing activity.
Since the NHEIII region has been described as an inhibitor of the transcription of c-myc, several mutants of the NHEIII region were constructed by Guanine modification of the purine-rich region. The 27 Guanines present in the NHEIII region are involved in maintaining the secondary structure of the G-quadruplexes of the purine-rich region (Pu27). The following were mutated: G12A, located on the second guanine of the second quartet; G17A, on the second triplet of Guanines; and, finally, two consecutive Guanines (G26A/G27A) at the end of the purine-rich region (FIG. 13a). These promoter construct were transfected in cells that express, either the empty vector, or the vectors containing the DKC protein or the GSE 24.2 peptide.
Directed mutagenesis. The specific mutations of guanine in the NHEIII region of the c-myc gene promoter, px3.2, were performed using the Quickchange X-L directed mutagenesis kit (Strategene) in accordance with the manufacturer's instructions.

B1: GSE 24.2: 165-pb cDNA fragment (nucleotides 268 to 433) of human dyskerin, SEQ ID NO1, encoding peptide SEQ ID NO2, expressed from pLNCX plasmid (nucleic acid, listed as Homo sapiens)
DNA: GGTTTCATTAATCTTGACAAGCCCTCTAACCCCTCTTCCCATGAGGTGGTAGCCTGGATTCGACGGATACTTCGGGTGGAGAAGACAGGGCACAGTGGTACTCTGGATCCCAAGGTGACTGGTTGTTTAATCGTGTGCATAGAACGAGCCACTCGCTTGGTGAAG
modifications: expressed from pLNCX plasmid; CDS (1)..(165) Sequence GSE 24.2
Regarding B1, the “cell viability in response to Inhibitor of Telomerase I” value is recorded as “more resistant to the inhibitor of telomerase I” with 293T cells and “increases viability” in the data set with 293T cells (listed as 24.2). Further, the “c-myc promoter (px3.2myc) activity, transient co-transfection” value with c-MYC promoter (293T cells, GSE 24.2 plasmid vs pLNCX jointly with px3.2myc reporter) was “A similar result was obtained”. For the same molecule, in the data set with c-MYC promoter (GSE 24.2 cells vs control cells, three deleted mutants), the “transcription from deletion mutants of the c-myc promoter” value is “only those contained in the distal region of promoters P1 and P0, which include the NHEIII domain, were capable of maintaining the transcription”. Besides, the “activation of WT px3.2 myc promoter” value in the data set on c-MYC promoter (cells expressing empty vector, DKC or GSE 24.2) is reported as “only the WT px3,2 myc promoter was capable of being activated”. Further, in the data set on c-MYC promoter (mutants G12A, G17A, G26A/G27A), the “activation of Pu27 (NHEIII) mutant c-myc promoters” value is on record as “at very low levels”. Also, the “c-myc promoter (px3.2myc) activity, GSE 24.2 cells vs control cells” value with c-MYC promoter (stable cell lines transfected with px3.2myc) was “three-fold increase in activity”.
